Target: T1, bovine LPL (Bos taurus, UniProt P11151)
T1 sequence (P11151 29-478): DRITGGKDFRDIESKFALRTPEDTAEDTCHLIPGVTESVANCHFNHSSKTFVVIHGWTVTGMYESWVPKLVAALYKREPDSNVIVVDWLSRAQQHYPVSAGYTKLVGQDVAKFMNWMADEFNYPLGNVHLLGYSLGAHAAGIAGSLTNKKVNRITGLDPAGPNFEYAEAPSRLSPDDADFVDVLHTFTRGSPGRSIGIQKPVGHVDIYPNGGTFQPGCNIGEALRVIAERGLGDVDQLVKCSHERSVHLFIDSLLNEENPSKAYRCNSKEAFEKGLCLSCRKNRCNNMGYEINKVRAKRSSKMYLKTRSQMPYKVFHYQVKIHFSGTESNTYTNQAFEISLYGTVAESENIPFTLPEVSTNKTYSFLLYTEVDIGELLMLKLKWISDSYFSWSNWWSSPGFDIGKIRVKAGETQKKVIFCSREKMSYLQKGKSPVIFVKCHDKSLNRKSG
Test: in vitro LPL assay using apoC-II deficient patient sera as substrate
Format: biochemical
Summary of the method: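 Bovine LPL incubated with peptide and substrate (3 mg/dL TG Intralipid or 1:100-diluted apoC-II-deficient human serum) in PBS with BSA, 30 min on ice then 1 h at 37° C. Released free fatty acids quantified by colorimetric NEFA assay (absorbance 550 and 660 nm) against an oleic acid standard.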

For “DYLKEVFEKLRDLYEKFTPAVSTYTGIFTDQVLSVLKGEE [Delta6PV]”, the “LPL activation compared with full length apoC-II protein” value (10 pM to 10 μM, FIG. 51) was “activated LPL in vitro more efficiently than the full length apoC-II protein” and the “LPL activation / TG hydrolysis” value (FIG. 52) was “activated LPL in vitro”.
